Assay results taken from the nanobody polyreactivity screen of Harvey et al. (2022).

Assay: yeast display, Sf9 membrane polyspecificity reagent, FACS + sequencing; frameworks hold sequencing errors
In short: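 In a synthetic yeast display library (Saccharomyces cerevisiae BJ5465), nanobody expression was induced with galactose for 36–48 hours. FACS gates were set low and high (top ~1%) using anti-HA fluorescence for expression and streptavidin fluorescence for binding of the Sf9 membrane reagent. Each polyreactivity label is drawn from the gate of origin.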

Row | Sequence | polyreactivity (PSR sort gate)
1 | QFQLVETGGGLVQAGGSLRLSSAASGSTFTLYAMGWYRQAPGKERELVATITGSGGSTNYADSVKGRFTISRDNAKNTVYLQMNSLKPEDTAVYYCAADYAVYSFTEFNYWGQGTQVTVSS | high polyreactivity
2 | QVQLVESGGGLVQAGGSLRLSCAASGGTFGVYTMGWYRQAPGKERELVAAISWSGGSTYYADSVKGRFTISRDNAKNTVYLQMNSLKPEDTAVYYCAARLKYGRIRVDHWGQGTQVTVSS | high polyreactivity
3 | QVQLVESGGGLVQAGGSLRLSCAASGNIFVLNPMGWYRQATCKETELVAAISRSGVRTYYADSVKGRFTISRDNAKNTVYLQMNSLKPEDTAVYYCAAVYKRLQPYGYWGQGTQETVSS | high polyreactivity
4 | QVQLVESGVGLVQARGSLRLSSASSGSILSTYAMGCYRQAPGKERELVASISSNAGSTYYADSVKGRFTISRDNAKNTVYLQMNSLKPEDTAVYYCNVKYKYYSPNYDYWGEGTQVTVSS | low polyreactivity
5 | QVQLVESGGGLVQAGGSLRLSCAASGFTFVDYAMGWYRQAPGKERELVAAITVSGDSTYYADSVKGRFTISRDNAKNTVYLQMNSLKPEDTAVYYCAADPGYYDGGYWGQGTQVTVSS | low polyreactivity
6 | QVQLVESGGGLVQAGGSLRLSCAASGRTFYGNAMGWYRQAPGKERELVAAITSGGGSTRYADSVKGRFTISRDNAKNSVYLQMNSLKPEDTAVYYCAALYWYEYTYLEYDYWGQGTQVTVSS | high polyreactivity
7 | QVQLVESGGCLVQAGGRLRLSCAASGRIFYWNDMGWYRQAPGKERELVAAIDFSGASTYYADSVKGRFTISRDNAKNTVYLEMNSLKPEDTAVYYCAAYQRRGKYQMDYWGQGTQVTVSS | low polyreactivity
8 | QVQLVESGGGLVQAGGSLRLSCAASGRIFRGYVMGWYRQAPGKERELVAITIGAGRTYYADSVKGRFTISRDNAKNTVYLQMISLKPEDTAVYYFAVRLYANSGRFDYWGQGTQVTVSS | low polyreactivity
9 | QVQLVESGGGLVQAGVSLRLSCAASGGIFADYAMGWYRQAPGKERELVAAISSGGNTNYADSVKGRFTISRDNAKNTVYLQMNSLKPEDTAVYYCNRDTSYYRYVYYEGNDYWGQGTQVTVSS | low polyreactivity
10 | QVKLVESGGGLVQAGGSLSLSCAASGRIFSYNAMGWYRQAPGKERELVAVISRSDTSTYYADSVKGRFTISRDNAKNTVYLEMNSLKPEDTAVYYCNADGPTYFRYSGYYYWGQGTQVTVSS | low polyreactivity
11 | QVQLVESGGGLVQAGGSLRLSCAASVSIFSSYAMGWYRQAPGKERELVAAISSSGDSTDADSVKGRFTISRDNAKNTVYLQMNSLKPEDTAVYYCAVGGAGSDDYWGHGTQVTVSS | low polyreactivity
12 | QVQLVESGGGLVQAGGSLRLSCAASGFTIVYYAMGWYRQAPGKERELVAVISSRGGSTYYADSVKGRFTISRDNAKNTVYLQMNSLKPEDTAVYYCAARGRGQPFVRYDYWGQGTQVTVSS | high polyreactivity
13 | QVQLVESGGGLVQAGGSLRLSCAASVFIFGLYVMGWYRQAPGKERELVAAITFNGGSTYADSVKGRFTISRDNAKNTVYLQMNSLKPEDTAVYYCNAGRAVYRYWYKYVYWGQGTQVTVSS | high polyreactivity
14 | QVKLVESGGGLVQAGGSLRLSCAASGFTIRSYFIVWNRQAPGKERELVAAITRRGGRTYYADSVKGRFTISRDNAKNTVFLQMNSLKPEDTAVYYCAAGPYLVDVDYWGQGTQVTVSS | high polyreactivity
15 | QVQLVESGGGLFKAGGSLRLSCAASGRIFEKYAMGWYRQAPGKERELVAAISYSGGSTYYADSVKGRFTISRDNAKNTVYFQMNCLKPEDTAVYYCARYSRTQAYDYWGQGTQVTVSS | high polyreactivity
16 | QVQLVESGGGLVQAGGSLGLSCAASGRTFGYYAMGWYRQAPGTERALVAAIRSTGSTNYADSVKGRFTISRDNAKNTVYLQMNSLIPEDTAVYYCYAKRRFRYDYWGQGTQVTVSS | low polyreactivity
17 | QDQLVESGGGLVQAGGSLRLSCAASGSIFHGYGRGWYRQAPGKERELVASITWIGGDTYYADSVKGRFTISRDNPKNTVYLQMNSLKPEDTAVYYCNAEWVVTYIYDYWGQGTQVTVSS | low polyreactivity
18 | QVQLVESGGGLVQAGGSLRLSCAASGPIFHPYAMGWYRHAPGKERELVAAITNSGGITYADSVKGRFTISRDNAKNTVYLQMNSLKPEDTAVYYCNTATNRFHYKYRKPYDYWGQGTQVTVSS | low polyreactivity
19 | QVQLVESGGGLVQAGGSLRLSCAASGFIFDVYAMGWYRQAPGKERELVAAITSGDGTNYADSVKGRFTISRDNAKNTVYLQMNSLKPEDTAVYYCAADDGVTYRGIIFSYWGQGSQVTVSS | low polyreactivity
20 | QVQLVESGGGLDQAGGSLRLSCAASGSIFSVYAMGWYRQARGKERELVAAITSGTSTYADSVKGRFTISRDNAKNSVYLQMNSLKPEDTAVYYCAAESGSPGYYYWGQGTQVTVSS | low polyreactivity
21 | QVQLVESGGGLVQAGGSLRLSCAASGRTFQLYAMGWYRQAPGKERELVAAITTRADRTYYADSVKGRFTISRDNAKNTVYLQLNSVKPEDTAVYYCAASYSRTYFREDYCGQGTQVTVSS | low polyreactivity
22 | QVQLVESGGGLVQAGGSLRLSCAASGGIFYSNAMGWYRPAPGKERELVAAISSSGGSTYYADSVKGRFTISRDNAKNTVYLQMNSLKPEDTAVYYCAARPTVRPVVRFGYWGQGTQVTVSS | high polyreactivity

Row | Sequence | polyreactivity (PSR sort gate)
23 | QVQLVESGGGLVQAGGSLRLSCAASGYTFWQYAKGWYRQAPGKERELVVTITSRGGSTYYADSVKGRFTISRDNAKNTVYLHMNSLKPEDTAVYYCNARRRYSTRRSDYWGQGTQVTVSS | high polyreactivity
24 | QVQLVESGGGLVQAGGSLRLSCAASGRIFYYNVMGWYRQAPGKEREFVAAISTRTGSTYYADSVKGRFTISRDNAKNTVYLQMNSLKPEDTAVYYCAAPYRAYSYDYWGQGTQVTVSS | high polyreactivity
25 | QVQLVESGGGLVQAGGSLRLSCDASGNTFLYNTMGWYRQAPGKEREFVAAISGSGGSTYYADSVKGRFTISRDNAKYTVYLQMNSLKPEDTAVYYCNALWRRRKYDYWGEGTQVTVSS | high polyreactivity
26 | QVQLVESGGGLVQAGGSIRLSCAASGIIFLGNAMGWYRQAPGIERELVAAITASGTTSYYADSVKGRFTISRDNAKNTVSLQMNSLKPEDTAVDYCAAQSTWYDFYYWVQGTQVTVSS | low polyreactivity
27 | QVQLVESGGGLVQAGGSLRLSCAASGLSFLYAMGWYRHAPGKERELVAAISNGGSTYYADSVKGRFTISRDNAKNTDYLQMNSLKPEDTAVYYCAAAVTGSYASDYWGQGTQVTVSS | high polyreactivity
28 | QVQLVESGGGLVQAGGSLRLSCAASGSIFRAYAMGWSRQAPGKERELVAAISIGGRTYYADSVKGRFTISRDNAKNTVYLQMNSLKPEDTAVYYCAAVRSYVKGGMYYWGQGTQVTVSS | low polyreactivity
29 | QVQLVESGGGLLQAGGSLRLSCAASGIIFRWYAMGWYSQAPGKERELVATITRSGGSTYYADSVKGRFTISRDNAKKTVYLLMKSLKPEDTAVFYCATGRYPSGRPTRNYDSVYWGHGTQVTVSS | high polyreactivity
30 | QVQLVESGGGLVQAGGSLRLSCAASGRTFGYYAMGWYRQSPGKERELVAAITSGGRTYYADSVKGRFTISRDNAKNTVYLQMNSLKPEDTAVYYCNAPARWGSRVAWYEYWGQGTQVSVSS | high polyreactivity
31 | QVHLVESGGGLVKAGGSLRLSCAASGRTFPYNAMGWYRQAPGKERELVAAISSGGSTNYADSVKGRFTISRDNAKNTVYLQMNSLKPEDTAVYYCATKYQRRPYRYYYWGQGTQVTVSS | low polyreactivity
32 | QVQLVESGGGLVQAGGSLGLSCAASGGILQSYAMGWYRQAPGKERELVATITYSAGSTYYADSVKGRFTISRDNAKNTVYLQMKSLKPEDTAVYVCAARRIPPARYKGYYYWGQGTQLTVSS | high polyreactivity
33 | QVQLVESGGGLVQAGGSLRLSCAASGLTFVYYAMGWSRPAPGKERELVAAISRGGTTYYADSVKGRFTISRDNAKNTVYLQMNSLKPEDTAVYYCARVGRYRYEWGQGTQVTVSS | high polyreactivity
34 | QVQLVESGGGLVQAGGSLRLSCAASVRTFKYYAMGWYRQAPGKERELVAAISWSGSSTYYADSVKGRFTISRDNAKNTVDLPMNSLKPEDPAVYYCAAATYRQFTGTYDYWGQGTQVTVSS | high polyreactivity
35 | QDQLVESGGGLVQAGGSLRLSCAASGSIFAGYAMGWYRQAPGKESELVAAITSGGRTYYADSVKGRFTISRDNAKNTVYLQMNSLKPEDTAVYYCAKRWYTKTGYDYWGQGTQVTVSS | high polyreactivity
36 | QVQLVESGGGLVQAGGSLRLSCAASGNIFSDYTMGWYRQAPGKERELVAAISGDGGTTYYADSVKGRFTISRDNAKNTVYLQMNSLKPEDTAVYYCAADGYYDAYDQFFIVYYEYDYWGQGTQVTVSS | low polyreactivity
37 | QVQLVESGGGLVQAGGSLRLSCAASGRIFYGYAMGWYRQAPGKERELVAGISYRGARTYYADSVKGRFTISRDNAKNTVYLQMNSLKPEDTAVYYCNAVPYYPFAFGALDYWGQGTQVTVSS | high polyreactivity
38 | QVQLVESGGGLVQAGGSLRLSCAASGRTFTRYTMGWYRQAPGKERELVAGITRSGGSTYYADSVKGRFTISRDNAKNTVYLQMNSLKPEDTAVYYCAARLSGRYDSQDNYWGQGTQVTVSS | high polyreactivity
39 | QVQLVESGGGLVQAGGSLRLSCAASGIIFYSYAMGWYRQAPGKERELVAAISNNGGSTYADSVKGRFTISRDNAKNTVYLQMNSLKPEDTAVYYCAADPTGGVGFDGYYWGQGTQVTVSS | low polyreactivity
40 | QVQLVESAGGLVQAGGSLRLSCAASGSTFYAYALGWYRQAPGKERELVAAISSDGTNYADSVKGRFTISRDNAKNTVYLQMNSLKPEDTSVYYCDADLLLYSSQDNDYWGQGTQVPVSS | low polyreactivity
41 | QVQLVESGGGLVQAGGSLLLSCAASGFTLPSYAMGWYIQAPGKERELVAAISSTGRTYYADSVKGRFTISRDNAKNTVYLQMNSLKPEDTAVYYCAARQDTWDAYLSTGEFDYWGQGTQVTVSS | high polyreactivity
42 | QVQLVESGGGLVQAGGSLRISCVASARTFYRYAMGWYRQAPGKERELVAVITRGGSTYYADSVKGRFTISRDNAKNPVYLQMNSLKPEDTAVYFCNADGRVQRKYDYWGQGTQVTVSS | high polyreactivity
43 | QVQLVESGGGLVQAGGSLSLSCAASGNIFSYNAMGWYRQAPGKERELVAAITWAGSTYADSVKGRFTISRDNAKNTVFLQRNSLKPEDTAVYYCNAANDSGYDYWGQGTQVTVSS | low polyreactivity
